# According to PMC12615753, “Glutathione as a taste modulator: molecular mechanisms of interaction with umami and sweet taste receptors” (Food Chemistry: Molecular Sciences, 2025):
# Like-named read-outs stand apart in the source and are kept apart here.
# Columns and labels:
# hTAS1R1/rTAS1R3 = biological target: T1, hTAS1R1/rTAS1R3 (UniProt Q7RTX1+Q923K1); experiment: Calcium assay (GCaMP6s, Gα15i2) in transiently transfected HEK293T/17 cells; type: cell-based, human, rat
# T1 construct: UniProtKB number Q7RTX1–1); The cDNA coding region of rTAS1R3 was synthesized with optimized-codon usage for human expression; expressed in transfected cells; host or cells: HEK293T/17 (ATCC CRL-11268)
# T1 sequence (Q7RTX1 21-841): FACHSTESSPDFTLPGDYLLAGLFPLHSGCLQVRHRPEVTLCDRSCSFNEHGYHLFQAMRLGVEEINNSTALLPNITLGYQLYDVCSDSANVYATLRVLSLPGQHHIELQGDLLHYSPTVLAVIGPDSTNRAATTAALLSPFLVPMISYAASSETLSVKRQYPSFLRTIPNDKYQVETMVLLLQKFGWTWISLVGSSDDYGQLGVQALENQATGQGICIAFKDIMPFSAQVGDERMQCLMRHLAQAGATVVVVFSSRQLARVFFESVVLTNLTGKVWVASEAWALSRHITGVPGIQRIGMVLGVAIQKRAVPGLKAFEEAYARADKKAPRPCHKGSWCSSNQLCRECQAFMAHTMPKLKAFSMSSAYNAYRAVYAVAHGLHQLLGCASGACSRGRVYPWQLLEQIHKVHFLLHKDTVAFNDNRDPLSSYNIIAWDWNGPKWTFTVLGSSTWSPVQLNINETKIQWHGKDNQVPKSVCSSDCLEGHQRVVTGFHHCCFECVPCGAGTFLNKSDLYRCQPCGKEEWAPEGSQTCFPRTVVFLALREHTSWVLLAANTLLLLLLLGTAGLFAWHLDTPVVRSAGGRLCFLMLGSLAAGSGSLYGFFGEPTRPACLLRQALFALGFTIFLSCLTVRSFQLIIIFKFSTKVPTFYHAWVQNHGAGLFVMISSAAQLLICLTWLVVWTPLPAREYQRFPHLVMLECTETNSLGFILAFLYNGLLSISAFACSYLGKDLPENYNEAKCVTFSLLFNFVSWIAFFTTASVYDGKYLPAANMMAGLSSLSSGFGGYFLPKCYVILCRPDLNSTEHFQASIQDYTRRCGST
# T1 sequence (Q923K1 21-858): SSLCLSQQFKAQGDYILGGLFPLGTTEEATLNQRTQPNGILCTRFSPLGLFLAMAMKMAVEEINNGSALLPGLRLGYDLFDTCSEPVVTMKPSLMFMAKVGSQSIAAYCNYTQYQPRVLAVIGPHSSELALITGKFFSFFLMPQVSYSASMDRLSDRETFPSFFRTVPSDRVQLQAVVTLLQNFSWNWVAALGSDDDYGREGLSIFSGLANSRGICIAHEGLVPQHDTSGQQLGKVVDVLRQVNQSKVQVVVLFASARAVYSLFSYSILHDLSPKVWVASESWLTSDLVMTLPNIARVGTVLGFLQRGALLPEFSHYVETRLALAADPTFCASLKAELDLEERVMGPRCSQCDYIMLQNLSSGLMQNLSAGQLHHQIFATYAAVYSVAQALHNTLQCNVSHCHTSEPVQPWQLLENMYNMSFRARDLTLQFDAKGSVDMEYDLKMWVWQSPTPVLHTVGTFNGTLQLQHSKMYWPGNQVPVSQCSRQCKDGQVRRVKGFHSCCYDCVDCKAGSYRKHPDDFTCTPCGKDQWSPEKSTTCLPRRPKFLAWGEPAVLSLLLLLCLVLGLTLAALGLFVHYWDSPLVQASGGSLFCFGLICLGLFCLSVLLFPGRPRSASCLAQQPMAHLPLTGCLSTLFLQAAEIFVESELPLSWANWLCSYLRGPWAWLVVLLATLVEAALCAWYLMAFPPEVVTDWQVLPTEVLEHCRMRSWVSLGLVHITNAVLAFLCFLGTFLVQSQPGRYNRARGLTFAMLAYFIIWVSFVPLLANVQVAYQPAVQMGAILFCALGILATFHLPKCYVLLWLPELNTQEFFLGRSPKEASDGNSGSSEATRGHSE
# Description: To this end, hTAS1R1/rTAS1R3 and the chimeric G protein Gα15i2 were transiently expressed in HEK293T cells. Cellular responses were assessed via calcium imaging using a fluorescent protein calcium biosensor (GCaMP6s) and compared with those of mock-transfected cells.
# [1] = biological target: hTAS1R1(A170W)/rTAS1R3 (human | rat) (UniProt Q7RTX1)
# [2] = biological target: hTAS1R1(A302W)/rTAS1R3 (human | rat) (UniProt Q7RTX1)
# [3] = biological target: hTAS1R1(D192A)/rTAS1R3 (human | rat) (UniProt Q7RTX1)
# [4] = biological target: hTAS1R1(H308A)/rTAS1R3 (human | rat) (UniProt Q7RTX1)
# [5] = biological target: hTAS1R1(H71A)/rTAS1R3 (human | rat) (UniProt Q7RTX1)
# [6] = biological target: hTAS1R1(H71L)/rTAS1R3 (human | rat) (UniProt Q7RTX1)
# [7] = biological target: hTAS1R1(L223A)/rTAS1R3 (human | rat) (UniProt Q7RTX1)
# [8] = biological target: hTAS1R1(Q278A)/rTAS1R3 (human | rat) (UniProt Q7RTX1)
# [9] = biological target: hTAS1R1(Q278K)/rTAS1R3 (human | rat) (UniProt Q7RTX1)
# [10] = biological target: hTAS1R1(Q278Y)/rTAS1R3 (human | rat) (UniProt Q7RTX1)
# [11] = biological target: hTAS1R1(R151A)/rTAS1R3 (human | rat) (UniProt Q7RTX1)
# [12] = biological target: hTAS1R1(R277A)/rTAS1R3 (human | rat) (UniProt Q7RTX1)
# [13] = biological target: hTAS1R1/rTAS1R3 umami taste receptor (wild type) (human | rat) (UniProt Q7RTX1)
# [14] = biological target: hTAS1R1/rTAS1R3 umami taste receptor (wild type) (human | rat) (UniProt Q7RTX1); remark: listed apart in the source
# [15] = biological target: hTAS1R2/hTAS1R3 sweet taste receptor (human) (UniProt Q8TE23)
# [16] = biological target: hTAS1R2/rTAS1R3 sweet taste receptor (human | rat) (UniProt Q8TE23)
# [17] = biological target: hTAS1R1 subunit expressed alone (human) (UniProt Q7RTX1)
# umami perception = details: ref Shigemura et al., 2009, cited from earlier work
# Sequence of hTAS1R2/hTAS1R3 sweet taste receptor (human) (Q8TE23 20-839, chain 1 of 2): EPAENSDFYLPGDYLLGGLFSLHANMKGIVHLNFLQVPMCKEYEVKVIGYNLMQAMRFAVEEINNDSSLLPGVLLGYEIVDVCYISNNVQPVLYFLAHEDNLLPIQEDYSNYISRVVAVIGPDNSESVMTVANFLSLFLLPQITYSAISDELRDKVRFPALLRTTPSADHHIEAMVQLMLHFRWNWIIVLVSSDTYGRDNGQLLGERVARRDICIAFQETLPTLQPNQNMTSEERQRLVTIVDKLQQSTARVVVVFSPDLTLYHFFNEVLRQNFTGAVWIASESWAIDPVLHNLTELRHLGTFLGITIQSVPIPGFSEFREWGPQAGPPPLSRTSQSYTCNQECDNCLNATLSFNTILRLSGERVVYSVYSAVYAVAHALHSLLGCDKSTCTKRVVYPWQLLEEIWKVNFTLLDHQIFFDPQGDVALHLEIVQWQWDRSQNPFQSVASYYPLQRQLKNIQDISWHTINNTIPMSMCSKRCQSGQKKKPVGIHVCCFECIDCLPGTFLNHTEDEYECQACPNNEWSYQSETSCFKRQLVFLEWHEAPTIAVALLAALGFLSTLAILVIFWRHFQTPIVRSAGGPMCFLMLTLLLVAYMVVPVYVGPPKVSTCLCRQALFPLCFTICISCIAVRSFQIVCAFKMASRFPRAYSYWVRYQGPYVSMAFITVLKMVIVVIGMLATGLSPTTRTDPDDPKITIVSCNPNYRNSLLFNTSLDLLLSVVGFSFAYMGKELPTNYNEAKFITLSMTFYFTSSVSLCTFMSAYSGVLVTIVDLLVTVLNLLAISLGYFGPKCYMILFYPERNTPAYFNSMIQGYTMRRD
# Sequence of hTAS1R2/hTAS1R3 sweet taste receptor (human) (Q7RTX0 21-852, chain 2 of 2, further chain): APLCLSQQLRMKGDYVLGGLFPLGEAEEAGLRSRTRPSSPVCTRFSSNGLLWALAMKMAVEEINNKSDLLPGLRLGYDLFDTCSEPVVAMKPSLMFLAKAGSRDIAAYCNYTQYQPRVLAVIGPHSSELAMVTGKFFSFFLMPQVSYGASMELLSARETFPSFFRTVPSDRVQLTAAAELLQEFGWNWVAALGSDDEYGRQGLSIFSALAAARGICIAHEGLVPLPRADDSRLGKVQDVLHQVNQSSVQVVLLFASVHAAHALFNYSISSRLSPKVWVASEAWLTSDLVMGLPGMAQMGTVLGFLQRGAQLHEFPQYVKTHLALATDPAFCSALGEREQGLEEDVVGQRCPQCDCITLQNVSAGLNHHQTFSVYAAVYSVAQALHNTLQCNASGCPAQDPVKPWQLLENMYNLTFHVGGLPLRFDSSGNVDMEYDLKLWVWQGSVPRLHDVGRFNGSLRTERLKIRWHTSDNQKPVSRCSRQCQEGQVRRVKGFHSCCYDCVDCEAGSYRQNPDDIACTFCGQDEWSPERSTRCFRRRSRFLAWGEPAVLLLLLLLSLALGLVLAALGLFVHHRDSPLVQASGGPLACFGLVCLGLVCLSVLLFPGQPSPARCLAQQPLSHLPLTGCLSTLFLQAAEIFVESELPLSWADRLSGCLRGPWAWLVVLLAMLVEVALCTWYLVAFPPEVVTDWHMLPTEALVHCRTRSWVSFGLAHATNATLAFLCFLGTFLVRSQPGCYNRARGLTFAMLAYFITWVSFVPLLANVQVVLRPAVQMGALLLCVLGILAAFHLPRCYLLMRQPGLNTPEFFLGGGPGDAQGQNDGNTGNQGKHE
# Sequence of hTAS1R2/rTAS1R3 sweet taste receptor (human | rat) (Q8TE23 20-839): as the sequence (Q8TE23 20-839, chain 1 of 2) above
compound,measurement,setting,value
"Nc1nc2c(ncn2[C@@H]2O[C@H](COP(=O)(O)O)[C@@H](O)[C@H]2O)c(=O)[nH]1 [GMP, guanosine 5′-monophosphate, reference compound]",effect of the added 5′-ribonucleotide on the response to GSH,hTAS1R1/rTAS1R3; Fig. 6C–D,did not significantly increase
same,activation of the receptor,hTAS1R1/rTAS1R3; compound alone,did not activate
Reduced L-glutathione (γ-L-glutamyl-L-cysteinyl-glycine) (peptide),"EC50 of GSH, calcium response of transfected HEK293 cells",[1],5.29 mM
same,"EC50 of GSH, calcium response of transfected HEK293 cells",[2],5.32 mM
same,"EC50 of GSH, calcium response of transfected HEK293 cells",[3],3.25 mM
same,"EC50 of GSH, calcium response of transfected HEK293 cells",[4],3.25 mM
same,"EC50 of GSH, calcium response of transfected HEK293 cells",[5],2.03 mM
same,"EC50 of GSH, calcium response of transfected HEK293 cells",[6],2.27 mM
same,"EC50 of GSH, calcium response of transfected HEK293 cells",[7],2.32 mM
same,"EC50 of GSH, calcium response of transfected HEK293 cells",[8],3.42 mM
same,"EC50 of GSH, calcium response of transfected HEK293 cells",[9],5.66 mM
same,"EC50 of GSH, calcium response of transfected HEK293 cells",[10],3.96 mM
same,"EC50 of GSH, calcium response of transfected HEK293 cells",[11],2.59 mM
same,"EC50 of GSH, calcium response of transfected HEK293 cells",[12],1.84 mM
same,"EC50 of GSH, calcium response of transfected HEK293 cells (mutant series)",[13],2.52 mM
same,"EC50 of GSH, calcium response (GCaMP6s fluorescence) of transfected HEK293T cells",[14],2.15 mM
same,"EC50 of GSH, calcium response of cells expressing the sweet taste receptor",[15],0.591 mM
same,"EC50 of GSH, calcium response of cells expressing the sweet taste receptor",[16],4.06 mM
same,"EC50 of GSH in the presence of 0.1 μM S807, calcium response of HEK293 cells expressing hTAS1R1 alone",[17],0.281 mM
γ-L-Glutamyl-L-cysteine (peptide),"EC50 of Glu-Cys, calcium response (GCaMP6s fluorescence) of transfected HEK293T cells",[14],3.2 mM
"N[C@@H](CCC(=O)O)C(=O)[O-].[Na+] [MSG, monosodium glutamate]",sensory recognition threshold,umami perception; MSG alone,7.66 mM
same,sensory recognition threshold,umami perception; in the presence of 0.05 mM IMP,0.20 mM
"N[C@@H](CCC(=O)N[C@@H](CS)C(=O)O)C(=O)O [Glu-Cys, γ-L-Glutamyl-L-cysteine]",EC50,"hTAS1R1/rTAS1R3; agonist alone, Fig. 1, Fig. S2",3.2 ± 1.54 mM
same,max ∆F/F0,"hTAS1R1/rTAS1R3; agonist alone, Fig. 1, Fig. S2",0.42 ± 0.07
